Tests used:
[1] = system: spinal cord injured rats; assay: Spinal cord injury (clip compression), functional analysis (BBB, motor subscore, ladder-walk); format: in vivo, rat; details: for functional recovery (BBB score and motor subscore) compared to controls: 4Ig IV or MβCD IP
Experimental: The spinal cord was injured by clip compression at spinal cord level T8 with a 20 g force. The 4Ig or vehicle was injected intraspinally immediately following SCI. 2 injections (250 ng/μL, 3 μL each) were made 1 mm rostral and 1 mm caudal to the lesion site and adjacent to the midline vein. Immediately following SCI, the 4Ig treated rats also received a 1 mg/kg dose of 4Ig intravenously (i.v.) via the intrajugular vein and subsequent i.v. injections weekly for 2 more weeks. Rats in the MβCD group received intraperitoneal (i.p.) injection of MβCD at 1000 mg/kg/week immediately following SCI and then daily i.p. injections until sacrifice. Control rats received equivalent vehicle volumes as described above.
To assess local delivery of 4Ig, 19 adult female Wistar rats were injured and injected rostral and caudal to the lesion site with 4Ig or PBS. Immediately after the intraspinal injections, 4Ig or PBS was delivered intrathecally and then continuously for 14 days (0.5 μL/hour) via the catheter and pump system.
Functional tests were performed before the injury, 1 day, and then weekly for 6 weeks post-SCI. Locomotor function was evaluated using the BBB locomotor rating scale. A score of 0 indicates no hindlimb movement, a score of 21 indicates unimpaired locomotion as observed in Control. Motor subscores were determined to assess toe clearance, predominant paw position and absence of instability. A maximal motor subscore of 7 means normal locomotion.
Ladder-walk analysis was done to assess fine motor functions. At 1 week post-SCI and weekly thereafter, rats with a BBB score greater than 10 were placed on the horizontal ladder-walk apparatus and 3 test runs were recorded. Recordings were analyzed in slow motion; the number of footfalls per hindlimb was recorded and the average was calculated for each rat per week.
Pre-operatively, 32 adult female Wistar rats (Charles River, St. Constant, QC, 200-300 g) were acclimatized and trained for baseline behavioral assessment. Rats were divided into 4 groups (n=8/group): 1) MBCD (i.p.); 2) vehicle control (i.p); 3) 4Ig (i.v. and intraspinal); 4) vehicle control (i.v. and intraspinal). Rats were anesthetized by inhalation of 2% isofluorane in combination with a mixture of nitrous oxide and oxygen (1:2, v/v). The spinal cord was exposed by laminectomy and a clip compression injury was made at spinal cord level T8 with a 20 g force. This was a clinically relevant model of SCI reflecting human pathology. n the 4Ig and equivalent control group, 4Ig or vehicle was injected intraspinally immediately following SCI. A total of 2 injections (250 ng/μL, 3 μL each) were made 1 mm rostral and 1 mm caudal to the lesion site and adjacent to the midline vein. Injections were made stereotactically with the aid of an operating microscope using a motorized microinjector at a rate of 1.5 μl/min with a 10 μl Hamilton syringe and a customized 32 G needle. The needle was left in place for an additional 2 min after injection to prevent leakage. The overlying muscle and skin were sutured with 3-0 vicryl sutures (Johnson and Johnson, Peterborough ON, Canada).
Immediately following SCI, the 4Ig treated rats also received a 1 mg/kg dose of 4Ig i.v. via the intrajugular vein and subsequent i.v. injections weekly for 2 more weeks. Rats in the MβCD group received intraperitoneal injection of MβCD at 1000 mg/kg/week immediately following SCI and then daily i.p. injections until sacrifice. Control rats received equivalent volumes as described above. Bladders were evacuated manually 3 times daily until spontaneous voiding was established, and hematuria or urinary tract infection was treated with Clavomax (62.5 mg PO BID for 7 days). The rats were housed singly in a temperature-controlled room at 26° C. with a 12 hour light/dark cycle. Water and food were provided ad libitum. […]

[2] = system: retinal whole mounts; assay: Oxygen Glucose Deprivation (OGD) in retinal whole mounts, PI staining; format: cell-based; details: OGD in presence of 4Ig
Experimental: Specifically, retinal whole mounts were subjected to OGD for 1 hour. After ischemia, whole mounts were incubated for 24 hours and dead cells were identified using propidium iodide (PI) staining.
To determine whether Neogenin required lipid raft association to induce cell death, OGD was performed on retinal whole mounts in the presence of 4Ig, which as described above, prevented Neogenin localization into lipid rafts.

Molecule	functional recovery (BBB score and motor subscore) compared to controls ([1]; as early as 2-3 weeks post-SCI)	improvement of locomotor recovery vs. control ([1]; older animals (greater than 7 month), post-SCI)	hindlimb coordination (footfalls), local application ([1]; intrathecal)	functional recovery (BBB score), local application ([1]; intrathecal, Alzet mini-osmotic pumps, as early as 2-3 weeks post-SCI)	hindlimb coordination, ladder-walk test (footfalls) ([1]; systemic treatment)	reduction of the number of dead neurons compared to controls [2]
methyl-β-cyclodextrin [MβCD, reference compound]	significant functional recovery	+6.8 BBB points				
4Ig: four immunoglobulin-like domains of Neogenin, amino acids 1 to 383 of Accession No. AAC59662 (SEQ ID NO:1) (protein, listed as Gallus gallus, Neogenin - Accession No. AAC59662) RSGPRSPLTGSVVRTFTPFYFLVEPMDILSVRGASVIMNCSSYCETPPKIEWKKDGTLLNLVSDDRRQLLPDGSLLINSVVHSKHNKPDEGYYQCVATVESLGSIVSRTAKLTVAGLPRFTSQPELSSVYKGNSAILNCEVNVDLAPFVRWEQDRQPLSLDDRVFKLPSGALLIGNATDTDGGFYRCVIESGGTPKYSEEAELKILPDPEEPQSLVFVRQPSSLTKVTGQNAVFPCVAGGFPTPYVRWTKNGEELITEDSERFALRAGGSLLISDVTEEDVGTYTCIADNENETIEAQAELAVQVPPEFLKRPANIYAHESMDIVFECEVTGKPTPTVKWVKNGDVVIPSDYFKIVKEHNLQVLGLVKSDEGFYQCIAENDVGNAQAGAQLIILDLDVAIPTLPPTSLTSATNDHLAPATTGPLPTAPRDVVATLVSTRFIRLTWRTPVSDPQGDNLTYSIFYTKEGINRERVENTSRPGETQVMIQNLMPETVYVFRVVAQNKHGHGESSAPLKVATQPEVQLPGPAPNIRAYAGSPTSVTVTWETPLSGNGEIQNYKLYYMEKGQDSEQDVDVAGLSYTITGLKKYTEYSFRVVAYNKHGPGVSTQDVVVRTLSDVPSAAPQNLTLEARNSKSIMLHWQPPPAGTHSGQITGYKIRYRKVSRKSDVTESVGGTQLFQLIEGLERGTEYNFRIAAMTVNGTGPATDWVSAETFESDLDESRVPEVPSSLHVRPLVTSIVVSWTPPENQNIVVRGYAIGYGIGSPHAQTIKVDYKQRYYTIENLDPSSHYVITLKAFNNVGEGIPLYESAVTRPHSDTSEVDLFVINAPYTPVPDPSPMMPPVGVQASILSHDTIRITWADNSLPKNQKITDARYYTVRWKTNIPANTKYKTANATTLSYLVTGLKPNTLYEFSVMVTKGRRSSTWSMTAHGTTFELVPTSPPKDVTVVSKEGKPRTIIVNWQPPSEANGKITGYIIYYSTDVNAEIHDWVIEPVVGNRLTHQIQELTLDTPYYFKIQARNSKGMGPMSEAVQFRTPKAESSDKMPNDQASGSAGKGSRPVDVGPDYKPPLSGSNSPHGSPTSPLDSNMLLVIIVSVGVITIVIVVIVAVFCTRRTTSHQKKKRAACKSVNGSHKYKGNSKDVKPPDLWIHHERLELKPIDKSPDPNPIMTDTPIPRNSQDITPVDNSMDSNIHQRRNSYRGHESEDSMSTLAGRRGMRPKMMMPFDSQPPQPVISAHPIHSLDNPHHHFHSGSLASPTRSYLHHQVSPWPVGTSMSHSDRANSTESVRNTPSSDTMPASSSQPCADHQDPDSSSGAYLGSAQEEDAAQSLPTAHVRPSHPLKSFAVPAVPAAGSAYDPTLPSTPLLTQQAPSHPVHSVKTASIGTLGRTRPPMPVVVPSAPDVQETTRMLEDSESSYEPDELTKEMAHLEGLMKDLNAITTA	significant functional recovery		fewer footfalls	significant functional recovery	fewer footfalls	two-fold

From patent US11497796B2, “Agents directed against a cis RGMa/neogenin interaction or lipid rafts and use of the same in methods of treatment” (UNIVERSITY HEALTH NETWORK, priority 2013, dated 2022)
